The record followed here is the supplement of paper PMC10724198.

± gives the standard deviation of the averaged measurements.
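Further: PSI is a weighted mean of sequencing reads over stability bins, variants kept only with over 10 reads, mCherry proximal and sfGFP distal, peptide attached via GGGS linker.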

This data set has as its system Saccharomyces cerevisiae. As to the kind of experiment: protein stability index of tFT-peptide fusion (C-terminal peptide) (PSI (0-1 scale)); higher = more stable (slower turnover). The note with it: genetic background: wild type; temperature: 30 C.
For PSGLRNAHRHRT, the protein stability index is 0.719 ± 0.013.

PSGPKAPPHAGR had a protein stability index of 0.6757 ± 0.0058. To PSHPLSLFLLFL belongs 0.58 ± 0.007; to PSIPRTSTRPTL, 0.706 ± 0.037. The sequence PSIPRTTLLSCN showed a protein stability index of 0.607 ± 0.037. In the case of PSLDCMSIEETT it was 0.679 ± 0.017; in that of PSLGLSIPTPLP, 0.6849 ± 0.0046; in that of PSLLFILPSPLP, 0.689 ± 0.015. In the case of PSLPFPPTPPPC it was 0.686 ± 0.11.

As to PSLPHSRPRTPT, the protein stability index stood at 0.707 ± 0.028. In the case of PSLPPVPPPPRP it was 0.71 ± 0.04; in that of PSLSSHPALLFI, 0.752 ± 0.038.

PSNPTPLTLLLF registered a protein stability index of 0.641 ± 0.017. PSPAPHIPIFFR: the protein stability index was 0.742 ± 0.079. In the case of PSPCPPRPPPSP it was 0.753 ± 0.1.

Consider PSPDLRAPSSVR, for which the protein stability index is 0.731 ± 0.024. To PSPDPCPLGRTA belongs 0.629 ± 0.067. PSPFSPPPPSSP displayed a protein stability index of 0.736 ± 0.028. For the sequence PSPGPPATRPAL, the protein stability index came out at 0.719 ± 0.0036. With PSPICFYPLGAS, the protein stability index is 0.71 ± 0.034.

With PSPIHSRQTQWF, the protein stability index came out at 0.707 ± 0.015. For PSPLPPPPLLPP, the protein stability index came to 0.775 ± 0.28. To PSPLPRPPPLPL belongs 0.656 ± 0.039; to PSPLRDLRSTAL, 0.663 ± 0.031; to PSPPFPPPPPPE, 0.717 ± 0.047.

The sequence PSPPLPPPAPLL showed a protein stability index of 0.718 ± 0.056. To PSPPLPPPPSGP belongs 0.677 ± 0.067; to PSPPLPPPYPLP, 0.716 ± 0.084; to PSPPLPPRPPTL, 0.743 ± 0.013. In the case of PSPPPLPPLPPF it was 0.682 ± 0.029. In the case of PSPPPPAPRPPP it was 0.657 ± 0.03; in that of PSPPPPGPPLAL, 0.632 ± 0.033. Turning to PSPPPPLAPCLP, the protein stability index came to 0.666 ± 0.038. In the case of PSPPPPPPPSVR it was 0.69 ± 0.042; in that of PSPPPPPPTPAS, 0.655 ± 0.024. To PSPPPPTPPVRL belongs 0.722 ± 0.11; to PSPPPVLLPFFT, 0.711 ± 0.08. In the case of PSPPSPPPPPPT it was 0.749 ± 0.06; in that of PSPPTALCPPPL, 0.68 ± 0.15. The sequence PSPPVPRPPPSP yielded a protein stability index of 0.647 ± 0.018. In the case of PSPPVRPPLPPP it was 0.652 ± 0.15.

The sequence PSPRPPSPLFPP had a protein stability index of 0.685 ± 0.073. The sequence PSPRSGPPLASP displayed a protein stability index of 0.6896 ± 0.0012. For the sequence PSPRSPPPSPPS, the protein stability index came out at 0.747 ± 0.12. To PSPSFPPPPLSR belongs 0.721 ± 0.073; to PSPSLPGRSASP, 0.727 ± 0.0081. In the case of PSPSPPPPPPGL it was 0.681 ± 0.064; in that of PSPTPTMPPPPP, 0.71 ± 0.01; in that of PSRPPGHPAPKP, 0.761 ± 0.063. To PSRSLSPSPPFS belongs 0.691 ± 0.066.

Consider PSSAHLPPPPPP, for which the protein stability index was found to be 0.673 ± 0.014. In the case of PSSAPPGSPGHL it was 0.701 ± 0.019; in that of PSSAQKNPNPNT, 0.701 ± 0.073; in that of PSSLFPPPPSVL, 0.685 ± 0.029. As to PSSLPPLSAPSS, the protein stability index was 0.6829 ± 0.0035. In the case of PSSPPCPPPLPS it was 0.624 ± 0.02. PSSPPPPPPPPH displayed a protein stability index of 0.71 ± 0.0097.

Sequence PSSPPSLPSPLP gave a protein stability index of 0.691 ± 0.065. In turn, PSSPPSSTSPPL returned a protein stability index of 0.633 ± 0.16. PSSPSPPYPFAP came in with a protein stability index of 0.684 ± 0.016. In the case of PSSRSASSSSPA it was 0.705 ± 0.043; in that of PSSSPPLLPPPA, 0.638 ± 0.026; in that of PSTLQPLQRSPR, 0.617 ± 0.0014. In the case of PSVLPSSCTPSP it was 0.663 ± 0.03.
